The results in this text go back to US20190234935A1 (Janssen / Centocor, published 2019).

Assay [1] concerns the target T1, GFRAL ECD-Fc (GFRAL extracellular domain, human IgG1 Fc, 6xHis-tag and Avi-tag) (human, UniProt Q6UXV0 19-351).
T1 construct: The recombinant signal peptide is left out; also called GFRAL extracellular domain (ECD)-Fc fusion; not shown: human IgG1 Fc; 6xHis-tag and Avi-tag at the C-terminus
T1 sequence: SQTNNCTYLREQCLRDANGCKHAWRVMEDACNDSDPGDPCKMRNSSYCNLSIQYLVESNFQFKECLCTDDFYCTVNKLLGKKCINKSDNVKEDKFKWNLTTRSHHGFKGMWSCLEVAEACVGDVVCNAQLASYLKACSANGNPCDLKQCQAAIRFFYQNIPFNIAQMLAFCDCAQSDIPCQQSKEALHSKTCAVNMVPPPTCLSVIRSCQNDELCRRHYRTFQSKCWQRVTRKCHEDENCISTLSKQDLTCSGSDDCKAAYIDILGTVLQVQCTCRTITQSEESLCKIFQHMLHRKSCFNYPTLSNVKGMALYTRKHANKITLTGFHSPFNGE
As to the kind of experiment: SPR. In general terms: In SPR one partner is held on a chip, and binding of the other changes the refractive index at the surface.

For assay [2], the target named is T2, cyno GFRAL ECD-Fc (cynomolgus monkey GFRAL extracellular domain fused to human IgG1 Fc with 6xHis-tag) (cynomolgus monkey). In words: SPR (ProteOn). The procedure:
Affinity measurements using Surface Plasmon Resonance (SPR) were performed using a ProteOn XPR36 system (Bio-Rad, Hercules, Calif.). A biosensor surface was prepared by coupling anti-Human IgG Fc (Jackson Immuno Research Labs, West Grove, Pa.) to the modified alginate polymer layer surface of a GLC chip (BioRad) using the manufacturer's instructions for amine-coupling chemistry. Approximately 5000 RU (response units) of mAbs were immobilized. The kinetic experiments were performed at 25° C. in running buffer (DPBS+0.01% P20+100 μg/ml BSA). To perform binding kinetic experiment of HSA-GDF15, GFRAL ECD-Fc or isotype control were captured followed by injections of ligands at 5 concentrations (in a 4-fold serial dilution). The association phase was monitored for 3 minutes at 50 μl/min, then followed by 15 minutes of buffer flow (dissociation phase). The chip surface was regenerated with two 18 second pulses of 100 mM H3PO4 (Sigma, St. Louis, Mo.) at 100 μL/min. The collected data were processed using ProteOn Manager software. First, the data was corrected for background using inter-spots. Then, double reference subtraction of the data was performed by using the buffer injection for analyte injections. The kinetic analysis of the data was performed using a Langmuir 1:1 binding model. […]

In assay [3] the target is T2, cyno GFRAL ECD-Fc (cynomolgus monkey …). As to the kind of experiment: SPR (ProteOn), GFRAL ECD-Fc captured by anti-human IgG Fc. The procedure:
(§1) Affinity measurements using Surface Plasmon Resonance (SPR) were performed using a ProteOn XPR36 system (Bio-Rad, Hercules, Calif.). A biosensor surface was prepared by coupling anti-Human IgG Fc (Jackson Immuno Research Labs, West Grove, Pa.) to the modified alginate polymer layer surface of a GLC chip (BioRad) using the manufacturer's instructions for amine-coupling chemistry. Approximately 5000 RU (response units) of mAbs were immobilized. The kinetic experiments were performed at 25° C. in running buffer (DPBS+0.01% P20+100 μg/ml BSA). To perform binding kinetic experiment of HSA-GDF15, GFRAL ECD-Fc or isotype control were captured followed by injections of ligands at 5 concentrations (in a 4-fold serial dilution). The association phase was monitored for 3 minutes at 50 μl/min, then followed by 15 minutes of buffer flow (dissociation phase). The chip surface was regenerated with two 18 second pulses of 100 mM H3PO4 (Sigma, St. Louis, Mo.) at 100 μL/min. The collected data were processed using ProteOn Manager software. First, the data was corrected for background using inter-spots. Then, double reference subtraction of the data was performed by using the buffer injection for analyte injections. The kinetic analysis of the data was performed using a Langmuir 1:1 binding model. The result was reported in the format of ka (On-rate), kd (Off-rate) and KD (equilibrium dissociation constant).

Assay [4] deals with T3, Human GFRAL ECD-Fc (human GFRAL extracellular domain fused to human IgG1 Fc with 6xHis-tag) (human, UniProt Q6UXV0 19-351).
T3 construct: not shown: Human IgG1 Fc, any junction and the C-terminal 6xHis
T3 sequence: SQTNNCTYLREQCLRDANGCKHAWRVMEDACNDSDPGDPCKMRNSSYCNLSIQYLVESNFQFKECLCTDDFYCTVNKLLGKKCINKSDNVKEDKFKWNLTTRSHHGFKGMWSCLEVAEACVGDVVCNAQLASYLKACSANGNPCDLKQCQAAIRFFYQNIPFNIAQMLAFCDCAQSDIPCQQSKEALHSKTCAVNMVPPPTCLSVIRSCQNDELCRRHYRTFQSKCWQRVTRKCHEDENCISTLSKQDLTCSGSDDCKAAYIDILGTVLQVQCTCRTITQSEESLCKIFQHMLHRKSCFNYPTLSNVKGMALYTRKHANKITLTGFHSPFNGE
The assay is described as above. The protocol:
as §1

B1: FlagTag-GDF15, homodimer (ligand)
chain: EFDYKDDDDKARNGDHCPLGPGRCCRLHTVRASLEDLGWADWVLSPREVQVTMCIGACPSQFRAANMHAQIKTSLHRLKPDTVPAPCCVPASYNPMVLIQKTDTGVSLQTYDDLLAKDCHCI
notes: it is counted on the native full length protein; also called non-fusion GDF15; mature GDF15 homodimer
Usually Kd stands for the constant that tells how readily two partners part at equilibrium. Broadly, the koff is the rate constant with which the complex falls apart. As a reminder, the kon is the second-order rate constant of association. In assay [1], B1 showed a Kd of 0.0196 nM, a koff of 0.000197 s⁻¹ and a kon of 1.01e+07 M⁻¹ s⁻¹.

B2: HSA-GDF15 (Example 7; linker SEQ ID NO:26) (ligand, not shown: large carriers; small tags and cut ends)
chain: ARNGDHCPLGPGRCCRLHTVRASLEDLGWADWVLSPREVQVTMCIGACPSQFRAANMHAQIKTSLHRLKPDTVPAPCCVPASYNPMVLIQKTDTGVSLQTYDDLLAKDCHCI
modifications: Disulfide-linked homodimer through GDF15; one protomer is given.
notes: No His tag is told of for this construct; purified on HSA CaptureSelect resin
Take B2: the “fold difference in binding affinity against human GFRAL” value in assay [2] is not above 2 fold. In assay [3], this molecule registered a Kd of 0.157 nM, a koff of 0.000291 s⁻¹ and a kon of 1.86e+06 M⁻¹ s⁻¹. Also, in assay [4], the Kd amounted to 0.0861 nM, the koff was 0.000156 s⁻¹ and the kon was 1.81e+06 M⁻¹ s⁻¹.
